Experimental findings from paper PMC12746103, “Structural insights into the exchange mechanism of a replicative DNA polymerase” (Nucleic Acids Research, 2025) are described below.

Substitutions are numbered along the chain they refer to. Numbers in names are those of the source. Where “and” joins values, the source holds several entries; their conditions need not be identical. Identical values can stand only once.

The chains are these.
T1: gp43(exo-) DNA polymerase;gp45 sliding clamp (wt) (T4 bacteriophage;T4 bacteriophage, UniProt P04415;P04525 1-898;1-228, D219A|)
T1 sequence 1: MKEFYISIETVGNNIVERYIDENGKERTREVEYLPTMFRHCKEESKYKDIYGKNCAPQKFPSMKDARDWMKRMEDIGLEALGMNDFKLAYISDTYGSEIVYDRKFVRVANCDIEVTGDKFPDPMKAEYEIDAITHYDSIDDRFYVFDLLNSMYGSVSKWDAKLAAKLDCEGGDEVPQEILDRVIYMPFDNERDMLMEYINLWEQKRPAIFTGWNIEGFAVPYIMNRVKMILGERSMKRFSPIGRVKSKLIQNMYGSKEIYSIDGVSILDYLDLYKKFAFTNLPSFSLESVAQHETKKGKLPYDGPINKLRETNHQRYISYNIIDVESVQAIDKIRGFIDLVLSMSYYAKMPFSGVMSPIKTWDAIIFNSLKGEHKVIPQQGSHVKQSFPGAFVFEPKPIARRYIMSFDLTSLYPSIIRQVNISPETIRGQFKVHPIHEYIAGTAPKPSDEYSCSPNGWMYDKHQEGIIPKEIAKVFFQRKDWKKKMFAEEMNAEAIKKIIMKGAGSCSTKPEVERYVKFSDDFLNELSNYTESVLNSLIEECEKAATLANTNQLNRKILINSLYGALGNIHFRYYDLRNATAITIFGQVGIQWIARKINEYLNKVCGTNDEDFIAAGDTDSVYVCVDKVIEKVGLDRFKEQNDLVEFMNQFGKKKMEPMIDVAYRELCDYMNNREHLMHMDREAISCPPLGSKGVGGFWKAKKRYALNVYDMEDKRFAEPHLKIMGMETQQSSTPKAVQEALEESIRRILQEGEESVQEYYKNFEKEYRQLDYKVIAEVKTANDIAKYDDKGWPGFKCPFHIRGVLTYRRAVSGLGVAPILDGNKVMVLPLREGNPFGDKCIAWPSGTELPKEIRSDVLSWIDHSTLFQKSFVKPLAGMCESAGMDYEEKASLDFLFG
T1 sequence 2: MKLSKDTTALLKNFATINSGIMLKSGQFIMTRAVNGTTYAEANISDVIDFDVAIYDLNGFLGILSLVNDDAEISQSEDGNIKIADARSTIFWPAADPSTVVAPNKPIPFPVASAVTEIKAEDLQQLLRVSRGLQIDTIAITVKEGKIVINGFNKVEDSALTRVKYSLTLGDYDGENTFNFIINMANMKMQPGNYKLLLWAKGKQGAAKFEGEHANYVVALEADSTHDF

T2: dimer-interface mutant gp43(exo-) DNA polymerase;gp45 sliding clamp (wt) (T4 bacteriophage;T4 bacteriophage, UniProt P04415;P04525 1-898;1-228, D219A;D75R;Q430E;K432E|)
T2 sequence 1: T1 sequence 1 with D75R, Q430E, K432E
T2 sequence 2: T1 sequence 2

B1: P/T DNA (25-nt primer / 38-nt template) (dsDNA)
DNA 1: CTGCACGAATTAAGCAATTCGTAATCATGGTCATAGCT
DNA 2: AGCTATGACCATGATTACGAATTGC
modifications: primer 3'-terminal dideoxycytidine (ddC)
B2: T4 bacteriophage gp43(exo-) exonuclease-deficient DNA polymerase (D219A) (enzyme, bacteriophage T4)
chain: T1 sequence 1
notes: DNA polymerase gp43 of bacteriophage T4 with the exonuclease-deficient mutation D219A; also called gp43 polymerase; T4 polymerase; source: E. coli BL21(DE3), purified (chitin resin with intein-mediated cleavage, heparin)
B3: dimer-interface mutant gp43(exo-) polymerase (D75R, Q430E, K432E in gp43(exo-) D219A) (enzyme, bacteriophage T4)
chain: T1 sequence 1 with D75R, Q430E, K432E
notes: DNA polymerase gp43 of bacteriophage T4 with D219A (exo-) and the three dimer-interface mutations D75R, Q430E and K432E; PDB 9EA3 holds this mutant; the other three entries hold its parent m1; also called dimer-interface mutant polymerase; mutant polymerase; source: E. coli BL21(DE3), purified (chitin resin with intein-mediated cleavage, heparin)
B4: T4 bacteriophage gp45 sliding clamp (natural protein, bacteriophage T4)
chain: T1 sequence 2
notes: sliding clamp gp45 of bacteriophage T4, wild type, homotrimeric ring; also called wt-gp45 clamp; gp45 clamp; source: E. coli BL21(DE3), pET26b, purified (hydroxyapatite, anion exchange)

The target of data set [1] is T1, gp43(exo-) DNA polymerase;gp45 sliding …. The data set is described as follows: cryo-EM; ddTTP; two-polymerase complex state 1; DNA at right polymerase, primer end outside both active sites; cryo-EM assembly: 1.2 polymerase : 2 clamp : 1 DNA (molar) with ddTTP; proteins purified in HEPES pH 7.8 buffers; assembly salt and temperature not given in material. The following applies: protein: recombinant;recombinant; chain copies: 2;3; primer-template; 13 nt 5' template overhang, 25 bp duplex.

For data set [2], the target named is T2, dimer-interface mutant gp43(exo-) DNA …. The data set is described as follows: cryo-EM; ddTTP; one-polymerase holoenzyme, 4.0 A; cryo-EM assembly: 1.2 polymerase : 2 clamp : 1 DNA (molar) with ddTTP; proteins purified in HEPES pH 7.8 buffers; assembly salt and temperature not given in material. Particulars: protein: recombinant;recombinant; tags: self-cleaving intein chitin tag, removed;; copies: 1;3; primer-template; 13 nt 5' template overhang, 25 bp duplex.

The target of data set [3] is B4. The data set is described as follows: cryo-EM structure; 10 μM gp45 clamp mixed with 5 μM primer/template DNA (20 mM HEPES pH 7.5, 150 mM KOAc, 10 mM MgCl2, 0.5 mM ddTTP, 2 mM DTT; 10 min, 30°C), then 6 μM gp43 polymerase added (10 min room temperature, 1 h on ice); no clamp loader. The following applies: both partners purified.
Data set [4] deals with the molecule itself. The data set is described as above.
The target in data set [5] is B2. The description is as above. The following applies: both partners purified.
For data set [6], the target named is B3. The data set is described as above. Particulars: both partners purified.

As to B1, the binding result in data set [1] and in data set [2] was “binds” in each case. Take B2: the stoichiometry N (commonly a count of units in the complex or per binding partner) in data set [3] is 1 polymerase per clamp ring and 2 polymerases per clamp ring; in data set [4], 2. As for B3, the “stoichiometry N” value in data set [3] is 1 polymerase per clamp ring. Consider B4, for which the binding result in data set [5] and in data set [6] was “binds” throughout.
